{
  "source": "paper PMC11602162",
  "biological_target": "N-NTD (SARS-CoV-2 (Wuhan-Hu-1)) (UniProt P0DTC9)",
  "assay": "DSF",
  "details": "10 mM Tris-HCl pH 7.4, 150 mM NaCl, 1 mM MgCl2, BLI with 0.05% Tween-20",
  "data": [
    {"sequence": "TCGGACATCGGAATGTCTGA [A58-20 T6-to-A]", "values": [
      {"measurement": "binding signal", "value": "-0.5 C (Tm shift)"}
    ]}
  ]
}
